Experimental data taken from a protein production outcome set (Wang et al. 2014).

Assay: label from the status in PepcDB records
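Note: failed if final PepcDB status was selected cloned or expressed and not failed if soluble or beyond.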

| Sequence | protein production |
| --- | --- |
| MVAKQLSIFLENKSGRLTEVTEVLAKENINLSALCIAENADFGILRGIVSDPDKAYKALKDNHFAVNITDVVGISCPNVPGALAKVLGFLSAEGVFIEYMYSFANNNVANVVIRPSNMDKCIEVLKEKKVDLLAASDLYKL | not failed |
| VGTIDQLVKRVIEGSLSPKERTLLKEDPAYWFLSDENSLEYKYYKLKLAEMQR | not failed |
| MIVITGASSGLGAELAKLYDAEGKATYLTGRSESKLSTVTNCLSNNVGYRACDLASHQEVEQLFEQLDSIPSTVVHSAGSGYFGPLEKQDPDQIQTLIENNLSSAINVLRELVKRYKDQPVNVVMIMSTAAQQPKAQESTYCAVKWAVKGLIESVRLELKGKPMKIIAVYPGGMATEFWETSGKSLDTSSFMSAEDAALMILGALANIGNGYVSDITVNRL | failed |
| MIRRLLRMVRGRTGQRLPDGGIQQDEASKIETAGDSDAREQRAADSDTTREMGTDTGTGLSTGRFVDENVRLLLNGLSQPTFVLDAEGEVVAWNEALAELTGATRDEAVGHDHASEMFYPDGRRAKTLADKVLEHPETVHEEYDVELEAPEMGRVADTSTMLDQYGDEKHIYFAATPQYRDGELVGVVETVIDRTEEVERRLAIERLVGTLGSTLESLRSGELDARAELEDEHAAALDDELLDVVDALNAFAEEFQTLSGRVEQQADRLDDAVDRVVEAAAEISDAVGEQNELVDDAVSEMQTFSAQMEEVAATAQDVDEAASDAKETAEHGLETGQDAREAAKEVTDISEELVDDITALQARMDDIESVVEVVSDVADQTNILALNANIEAARADESGEGFAVVADEVKSLADETQSHTDDITDSIEKLREQTDRTVSAAMTSSERVDRADQRIQEMFDAFEDIADAVEAAADGIAEVAQANDDQAASIEEVTATLETVREHSERAETAAEDVESAATSQAESIDALIKRVERLREGTADAADAA | failed |
| QKIEKQYDADLEQILIQWITTQCRKDVGRPQPGRENFQNWLKDGTVLCELINALYPEGQAPVKKIQASTMAFKQMEQISQFLQAAERYGINTTDIFQTVDLWEGKNMACVQRTLMNLGGLAVARDDGLFSGDPNWFPKKSKE | not failed |
| GSAHSDEQSSGTLSSPGQSDILLTAAQGTVRKAGALAVKNFLVHKKNKKVESATRRKWKHYWVSLKGCTLFFYESDGRSGIDHNSIPKHAVWVENSIVQAVPEHPKKDFVFCLSNSLGDAFLFQTTSQTELENWITAIHSACATAVAR | failed |
| LLTRQLEKSRQQQQLMVAIALIIRQSLKLEDILSVTVAEVRQFLQADRVLIYQFQPDMSGIVVAESILPGWIATKGAQIEDKCFQDSAGHNHQLKKRAINDIYQAGLTNCYLELLEQFQVKATLIVPIMVTNKSWGLLIAHQCAAPHHWQSFELDLLEQLAVQIAIAIQQASAYEQIQTELQERKRVEATLRESEQRFRQMADTAPVLIWMSGL | failed |
| MGSKKQIRVQNISHDNIYSGLRCFVDGSWKGSDKFSGLGWFCRSSNGDSPTMGAANLRRSLYPLHTEVEALLWSMKCMIGADNQEVAFFTDYSDLVKMVSSPTE | failed |
| MQPTTRLSFSQRHPFIFGFLLIMVAVALFTGATATFRHLTDAGSFGGPRIGIVRIEGMIGDVRKTLEWMRKLAEDRTVRGVLVRVDSPGGAVAPSQELHDAVKRLAADKPVVVSMGSLAASGGLMVSTGATRIVANPATITGSIGVKMEMPNVQGLMDKIGVARQTLVSGDLKDAGSPFRAMSEAERAYFQSIIMEMYGQFVSMIAEDRNIPVEKVRSFADGRILTGSQALELGLVDKLGSEAAAMDVLLALVDLKGEKPVFIEPPKERSWVREVLESALGIAPPQNMGQPAFLYY | failed |
| MIQLRAISRGMICGLLLSQLWSCSSTPLEPTAIEVDALFDDSLFKPVTNIPSVEDIFSLPSSVAVDVKRTYDRYAISTKNPLAVHEWLASYINANQSNGHSDFRYQDNLTQTASETFEQRAGNCMSLVVMTSALADIFNIGTEFQDIAIEPVWDKQGDFYLINGHVNLRLLPAQSVHTVYVSTHAILVDFMPERALRGLAKVQINRQTLTAMFYNNMAAESLVEGDLDHAYALVKAGLKSGHFSPALNTLAVIYRHKGDEKRAEQVYRYALKFDPDDMTTLFNLAVILDNQGRLEEWAQIHKKLELARIRNPYYYYDMGEQAYDEHQYREALAWYQRAVDKADYRHEFFFGLSRTYWALGDEKRAKQNMEKALALSREAADKHRCQAKLQAMRQH | failed |
| MRQSYRTPLLASLLVLICAVVLWNAYEWFQGRYLRAFSEHTAMFSGDPLQLPAELAGPGAIRLVHFWDPACPCNVGNQQHLAELIEAYSPRGVEFYAVQKPGSHGQLPATLSRLKHLDSLPGAEQIPASPAVAIWDRNGKLAYFGPYSEGLTCNSSNSFIEPILQALEDNRPVSATHTLAIGCYCPWPA | failed |
| MFISCIILINYSYIFGKNIRYLYEFKVIWKSNNSLILFFIEFDRNFMTIKFKLFKCRRLNILIELINIENYFRNGNILCFIFNIPSIPRNLLINVFLTSSNKVNISIQGLKLEHHHHHH | failed |
| MNLTYLFVLIWLAFLISSGVMLFSRGFLLARVSKTETSTCRRLSTNPNAEYVLTDEVVNEIFKDVNASSNLCLPQKSKVIVLVVDALKYEFGLYRANATDPLPYENKLVVLQELLQQNPDHARLMRFRADPPTTTLQRLKGLTTGSLPTFIDIGSNFASPEINEDNIIDQIVKNDLPVVFLGDSTWTDLYPHRFKRSYSYPSFDIFDLDSVDNEILKHLPKELESKDWQVLVAHFLGVDHCGHKHGPMHEEMARKLGEMNEVIRSVVAAMDNDTTLLVMGDHGMTASGDHGGDTDDETNALLFAYSKQHRFYGNDSGSDSEMLQQIDLVPTLATILGVPIPYSNLGLVNFNIVPDLRVPHLNKFQTLLLHSWQNAQQIYRYFFQYALENKRTFNVEQMDHLETEFILLTHRVQTVYNEVAFKSFVRDLNTNLRDILGTCREIWVRFDPTQMSQGLLFTFLPLFFIFLVVNNSRPADFPHIFKAKEVFYVYLINLAAGVFGYRYFKTFSFKTEEQGVIFFTAISSAVILAFHTLRHWTSIATNWSAVKRFGHMPTRLLLFGSMAVFFSNSFVIQEAKILSYLLAAAILLLSHELLRLSARLDFRTKFKASQFLRSTALRLILASVLAICLIRFAYTLFRCREEQGNCSDFVNTGGAGFSLKKPGTGKTYILAVVVLVVYTTLTRLYLRSCGNLTGNLPNVLLARYGPTVASICAGGHILLANSSIKHIQRTHIDAMALVIYGLLLVQIIVLSWAPLMTFVLPPRSSHTVTINGNESIVPEIFRKMKRMYEGDDDERRSHIPVVYGLATVYSSIVIAFGVFLALVMIVLLEPRASIGLVVCVAVGAILLSVHSILRYRTATSFESCVQPTFTALVGWFLLAHFCFFATSHQTTLSQIEWRAAFVGRTTGIGQSNLVSGALVILNTFCGPIFFFCMYSLLSTETFSLFALFPNLIRSCRSGGKVDASTSMSDLANEAVGFDMTRGELSLYEYEDVFLGTGFKLATQFFMLQGLKIFCAMLACTIHCRHLMVWKIFAPRFIYEALATFVSLPALIVGYLLVLRIHRGVDTLIKRINKAKVH | failed |
| MGNMISAVVAAAGRGSRMMRDMAELGLEPVHKLLLPLNGVTVIEATVKAVLSAGVDECIVVTGHRAGEVEEALSGMDVRVVRNDPVDVPLSASLLRGVRAAGGDIILCAAGDQPAVSPATLRRIAEHADGSTVSILARGESGWLDNARGIGMPLAAGADLLRDYLPLGDGNINPLLWMMLEDGVRLYGVEASRPIELVNINHYSDYLRIRDHFLRTNADGN | failed |
| MSKEMRSRLFSILKVVFAVALFSIVVFTLYKELSHINIKETIQSFGKINRVWLVALFVIGGASIIVLSMYDVILAKSLNLKISLLKTIRVGYIVNALNAVVGFGGFIGASVRFLFYKNATDDKRALLHTISIVLISMLTGLSLLSILVVIHVFDVSHLFTPYPWIKWLMYVVALFLPVFVIFTILRPVQENQKLLGVYCTIVSSIEWLVAALVLYMALTMVGVHVPISIFMGIFIIAALSGLISFIPGGFGTFDLVVLLGLKHLNIDEESIVLGLLLYRFAYYLFPVLVALILSTFEFRGTAKRYWEDARILVPVRDMTSLLSSYQKDIIARAPSFSIAILLMFTSLLFFLNNLTIIYDGLYDPNHYIYYIIVSVHTCACLLLLLNVVGVYRLSKRAILFSIISIILIFIVTAYTYASFILLSWLVVMLILLFIFYRRARVIKRPFRYLKLCLSFIMGALVLYINHIVIASTFYTLDIYHIEIDTSILRYYFWFTILLVAVIVGLIVWWFEYRYRISNTREDTKICASIVKQYGGNYLSHLMYSGDKKFFINENEDAFIMYRYQRNAYIVLGDPIGNPQSFYSLLESFYQEAEYLGYDIIFYQVTDRNMSLYHSFGNQFFKLGEEAVIDLNEFKISGKKKRGLRATLNKLDDLKYTFEVIEPPFTQALITDLKTISDEWLADKKEMHFSVGSFNESYLSKAPIAIIKDSDGLIIAFCTLMPTYYKGTISVDLIRWKPDCTLPLMDGLYLNMLLWSQKQNYQHFNMGMATLSNVGQLPYSFYGERIAGRVFEHFNGLYRFQGLRKYKEKFNPNWEPRFLVYRKRHSLWLSMIKVMRVIRKHK | failed |
| MLIRPATTADFDALRAIELAAFETLRAAGAVSGSASASTDQQLQRYLDHGLLDVACDQSGEPIGFCGGYIAESFLHIGEMDVHPAWQRQGVGRRLLTALLEEARARKADGATLTTDRLVPFNAPFYASLGFRPLADDELPAKLREILDAEANMGLDPDRRIAMMLRF | failed |
| MAPFSSSSAEIKIARTAPFSSSAENKGNRQINGASSSASSCDAENAKSGGSRQLGKAAYMEGKHVDALQIFMWMHRKEMSFSTSEVALFVDIIGNTIGIAAAHSYLKKVDPNCDQMHNRTENWPAFVSLVKLETKLLKENGIVHATRPPK | failed |
| MERKKITFDSFIRGSICCALIVGLLILFKRLSGVLLPFFVAWLIAYMIYPLVKFFQYKLRFKSRIISIFCALFSITIVGISLFYLLVPPMLAEMGRMNDLLVTYLTNGAYSSGTVPPTLSEFIHKHIDLQALNRILSEENIMNTIKETVPKLWALVAESINILFSVFASFIILLYVVFILLDYESIAEGWLHLLPGKYRTFASNLVNDIQDGMNRYFRGQAFVAFCVGILFSIGFLIIDFPMAIALGLFIGALNMVPYLQIIGFLPTIVLAILKAADTGENFWVILAGALIVFIVVQAIQDGFLVPRIMGKITGLNPAIILLSLSIWGSLLGMLGMIIALPLTTLMLSYYQRFIINKEKIKYDRHEVTDNQSAEENTKK | failed |
| MLCCMRRTKQVEKNDDDQKIEQDGIKPEDKAHKAATKIQASFRGHITRKKLKGEKKDDVQAAEAEANKKDEAPVADGVEKKGEGTTTAEAAPATGSKPDEPGKAGETPSEEKKGEGDAATEQAAPQAPASSEEKAGSAETESATKASTDNSPSSKAEDAPAKEEPKQADVPAAVTAAAATTPAAEDAAAKATAQPPTETGESSQAEENIEAVDETKPKESARQDEGKEEEPEADQEHA | failed |
